61 sequences from the supplement of paper PMC7877785 can be followed below.

The nature of this data set: self-splicing fitness, log relative to wild type (ln ratio); higher = more splicing; Tetrahymena group I intron in knt gene, E. coli kanamycin selection, DiMSum; sequences stand for … in CUCUCU…GGAGGGAAAAGUUAUCAGGCAUGCACCUGGUAGCUAGUCUUUAAACCAAUAGAUUGCAUCGGUUUAAAAGGCAAGACCGUCAAAUUGCGGGAAAGGGGUCAACAGCCGUUCAGUACCAAGUCUCAGGGGAAACUUUGAGAUGGCCUUGCAAAGGGUAUGGUAAUAAGCUGACGGACAUGGUCCUAACCACGCAGCCAAGUCCUAAGUCAACAGAUCUUCUGUUGAUAUGGAUGCAGUUCACAGACUAAAUGUCGGUCGGGGAAGAUGUAUUCUUCUCAUAAGAUAUAGUCGGACCUCUCCUUAAUGGGAGCUAGCGGAUGAAGUGAUGCAACACUGGAGCCGCUGGGAACUAAUUUGUAUGCGAAAGUAUAUUGAUUAGUUUUGGAGUACUCGUGGUCG
In outline: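 A randomised library covering all eight P1ex-region intron nucleotides was built with the intron in the knt kanamycin-resistance gene on pET-22b(+) and held in E. coli BL21(DE3). Cells were grown overnight at 37°C or 30°C on LB agar, with or without 25 μg/mL kanamycin, plus 100 μg/mL carbenicillin, 50 μM IPTG and 0.2% rhamnose, and pooled colonies were amplicon-sequenced on an Illumina HiSeq 2500. DiMSum fitness is the error-weighted combination of wild-type-normalised replicate fold changes, kanamycin versus none.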

± gives the uncertainty stated by the source.

On to GGUUAGCAAUAUUACGAAGC, for which the “self-splicing fitness (ln)” value runs as follows: (30 °C) -0.991 ± 0.17; (37 °C) -1.24 ± 0.18. Regarding UGUAAGCAAUAUUACGCAUG, the “self-splicing fitness (ln)” value by setting is: (30 °C) -1.95 ± 0.099; (37 °C) 0.308 ± 0.14. For GUACAGCAAUAUUACGGAUA the same measures were -2.46 ± 0.12 and -2.36 ± 0.14.

Regarding CCUGAGCAAUAUUACGCAGA, the “self-splicing fitness (ln)” value runs as follows: (30 °C) -3.44 ± 0.23; (37 °C) -1.96 ± 0.15.

In the case of AGGAAGCAAUAUUACGAUAC, the “self-splicing fitness (ln)” value by setting is: (30 °C) -3.27 ± 0.26; (37 °C) -2.02 ± 0.2. As to GUGCAGCAAUAUUACGCCCU, the “self-splicing fitness (ln)” value (30 °C) is -1.57 ± 0.14 and the “self-splicing fitness (ln)” value (37 °C) was -0.805 ± 0.16.

As to CCCCAGCAAUAUUACGGUGU, the “self-splicing fitness (ln)” value is -3.26 ± 0.11 (30 °C) and -1.94 ± 0.1 (37 °C). Consider GGCGAGCAAUAUUACGACGC, for which the “self-splicing fitness (ln)” value (30 °C) was -1.89 ± 0.29. Consider AAUGAGCAAUAUUACGACGG, for which the “self-splicing fitness (ln)” value (30 °C) was -3.86 ± 0.19 and the “self-splicing fitness (ln)” value (37 °C) is -2.3 ± 0.21.

UCAUAGCAAUAUUACGCUGA: the “self-splicing fitness (ln)” value by setting is: (30 °C) -2.32 ± 0.26; (37 °C) -1.85 ± 0.28. In the case of CCAGAGCAAUAUUACGGUCG, the “self-splicing fitness (ln)” value runs as follows: (30 °C) -1.35 ± 0.1; (37 °C) -0.448 ± 0.12.

Turning to GGACAGCAAUAUUACGAUCA, the “self-splicing fitness (ln)” value by setting is: (30 °C) -0.381 ± 0.087; (37 °C) 0.0425 ± 0.11. For UGACAGCAAUAUUACGUCCC, the “self-splicing fitness (ln)” value is -0.969 ± 0.17 (30 °C) and -1.51 ± 0.36 (37 °C). For the sequence UGGGAGCAAUAUUACGUAGG, the “self-splicing fitness (ln)” value was -3.24 ± 0.31 (30 °C) and -1.93 ± 0.32 (37 °C). Take UGGAAGCAAUAUUACGUUGA: the “self-splicing fitness (ln)” value (30 °C) was -2.36 ± 0.17 and the “self-splicing fitness (ln)” value (37 °C) was -2.01 ± 0.2. Take CACUAGCAAUAUUACGAUGA: the “self-splicing fitness (ln)” value was -1.85 ± 0.16 (30 °C) and -1.01 ± 0.14 (37 °C). With AUACAGCAAUAUUACGAGGC, the “self-splicing fitness (ln)” value by setting is: (30 °C) -2.99 ± 0.19; (37 °C) -2.23 ± 0.2.

Take CCCUAGCAAUAUUACGUCUG: the “self-splicing fitness (ln)” value by setting is: (30 °C) -2.99 ± 0.18; (37 °C) -3.17 ± 0.22.

Take CCUUAGCAAUAUUACGUAAA: the “self-splicing fitness (ln)” value (30 °C) is -3.63 ± 0.26 and the “self-splicing fitness (ln)” value (37 °C) is -1.88 ± 0.3. For AAGAAGCAAUAUUACGGUUU the same measures were -1.44 ± 0.068 and -0.413 ± 0.087. CCGAAGCAAUAUUACGAUAC: the “self-splicing fitness (ln)” value runs as follows: (30 °C) -3.86 ± 0.47; (37 °C) -1.95 ± 0.26. AAGCAGCAAUAUUACGUUGG: the “self-splicing fitness (ln)” value is -3.77 ± 0.17 (30 °C) and -1.45 ± 0.11 (37 °C). With AUCCAGCAAUAUUACGCGAU, the “self-splicing fitness (ln)” value reads like this: (30 °C) -1.86 ± 0.15; (37 °C) -2.42 ± 0.25. Take GCAUAGCAAUAUUACGCAGA: the “self-splicing fitness (ln)” value was -2.62 ± 0.31 (30 °C) and -2.06 ± 0.17 (37 °C). For AUGUAGCAAUAUUACGGUCG, the “self-splicing fitness (ln)” value (30 °C) is -1.44 ± 0.12 and the “self-splicing fitness (ln)” value (37 °C) was -1.59 ± 0.17. In the case of UGUUAGCAAUAUUACGCGCC, the “self-splicing fitness (ln)” value is, setting by setting: (30 °C) -1.13 ± 0.14; (37 °C) -0.207 ± 0.24. Regarding CGCAAGCAAUAUUACGAAUU, the “self-splicing fitness (ln)” value is, setting by setting: (30 °C) -2.55 ± 0.2; (37 °C) -3.57 ± 0.46.

Take AUACAGCAAUAUUACGACUA: the “self-splicing fitness (ln)” value was -0.177 ± 0.1 (30 °C) and -0.541 ± 0.089 (37 °C). As for AAAUAGCAAUAUUACGAUCA, the “self-splicing fitness (ln)” value is -0.673 ± 0.095 (30 °C) and 0.0414 ± 0.089 (37 °C). Consider AAAAAGCAAUAUUACGUGCC, for which the “self-splicing fitness (ln)” value is, setting by setting: (30 °C) -0.945 ± 0.11; (37 °C) -1.17 ± 0.12.

Turning to GUUGAGCAAUAUUACGCGCA, the “self-splicing fitness (ln)” value (30 °C) is -1.02 ± 0.2 and the “self-splicing fitness (ln)” value (37 °C) was -0.636 ± 0.24. In the case of AACGAGCAAUAUUACGAGGA, the “self-splicing fitness (ln)” value was -2.36 ± 0.28 (30 °C) and -2.34 ± 0.42 (37 °C). For GUCUAGCAAUAUUACGGGAA the same measures were -1.24 ± 0.086 and -0.758 ± 0.084. Consider CGGCAGCAAUAUUACGGUAG, for which the “self-splicing fitness (ln)” value reads like this: (30 °C) -0.745 ± 0.076; (37 °C) -0.0175 ± 0.074. As to UCCGAGCAAUAUUACGCAAU, the “self-splicing fitness (ln)” value (37 °C) was -2.91 ± 0.34. On to CUGCAGCAAUAUUACGACCC, for which the “self-splicing fitness (ln)” value by setting is: (30 °C) -3.76 ± 0.36; (37 °C) -1.05 ± 0.48. For the sequence CAAAAGCAAUAUUACGAAUU, the “self-splicing fitness (ln)” value was -3.52 ± 0.18 (30 °C) and -2.27 ± 0.22 (37 °C).

For UAAGAGCAAUAUUACGUAUA, the “self-splicing fitness (ln)” value (30 °C) was -2.64 ± 0.26 and the “self-splicing fitness (ln)” value (37 °C) was -1.97 ± 0.25. With ACCCAGCAAUAUUACGCCCC, the “self-splicing fitness (ln)” value was -1.3 ± 0.12 (30 °C) and -0.142 ± 0.14 (37 °C). The like results for UGUGAGCAAUAUUACGAGCG were, in that order, -1.29 ± 0.12 and -0.066 ± 0.12.

Turning to UGAAAGCAAUAUUACGAGCG, the “self-splicing fitness (ln)” value is 0.46 ± 0.072 (30 °C) and -0.171 ± 0.085 (37 °C). With CGCAAGCAAUAUUACGAGGC, the “self-splicing fitness (ln)” value runs as follows: (30 °C) -2.71 ± 0.2; (37 °C) -2.84 ± 0.29.

As for AAGUAGCAAUAUUACGGUCA, the “self-splicing fitness (ln)” value is -0.974 ± 0.094 (30 °C) and -0.354 ± 0.1 (37 °C). In the case of ACGCAGCAAUAUUACGUCUC, the “self-splicing fitness (ln)” value is -3.88 ± 0.13 (30 °C) and -0.606 ± 0.084 (37 °C). For ACAUAGCAAUAUUACGUCGG the same measures were -2.1 ± 0.099 and -1.16 ± 0.1. As to AUUCAGCAAUAUUACGAAGA, the “self-splicing fitness (ln)” value is, setting by setting: (30 °C) -0.761 ± 0.13; (37 °C) -0.747 ± 0.12. UUUUAGCAAUAUUACGGACU: the “self-splicing fitness (ln)” value reads like this: (30 °C) -2.67 ± 0.39; (37 °C) -0.49 ± 0.35. Take ACGUAGCAAUAUUACGAAAU: the “self-splicing fitness (ln)” value is -2.28 ± 0.19 (30 °C) and -1.3 ± 0.26 (37 °C).

On to GGAUAGCAAUAUUACGGUCC, for which the “self-splicing fitness (ln)” value (37 °C) is -2.68 ± 0.48. UGCCAGCAAUAUUACGAUGU: the “self-splicing fitness (ln)” value (30 °C) was -4.66 ± 0.26 and the “self-splicing fitness (ln)” value (37 °C) is -1.34 ± 0.15. For UCACAGCAAUAUUACGGAUC, the “self-splicing fitness (ln)” value runs as follows: (30 °C) -4.77 ± 0.46; (37 °C) -3.11 ± 0.33. Regarding GCUCAGCAAUAUUACGUAUG, the “self-splicing fitness (ln)” value (30 °C) was -2.44 ± 0.076 and the “self-splicing fitness (ln)” value (37 °C) is -1.62 ± 0.091. As to GCGGAGCAAUAUUACGGGUA, the “self-splicing fitness (ln)” value (30 °C) is -4.43 ± 0.42 and the “self-splicing fitness (ln)” value (37 °C) was -1.72 ± 0.2. Turning to AUGUAGCAAUAUUACGAGCG, the “self-splicing fitness (ln)” value is, setting by setting: (30 °C) -1.23 ± 0.11; (37 °C) -1.8 ± 0.14. As to AAGUAGCAAUAUUACGUAGC, the “self-splicing fitness (ln)” value by setting is: (30 °C) -3.25 ± 0.33; (37 °C) -2.3 ± 0.31. Turning to UUCCAGCAAUAUUACGCGAU, the “self-splicing fitness (ln)” value was -2.85 ± 0.21 (30 °C) and -1.32 ± 0.18 (37 °C). For UCAGAGCAAUAUUACGGAGG, the “self-splicing fitness (ln)” value (30 °C) is -3.4 ± 0.27 and the “self-splicing fitness (ln)” value (37 °C) was -2.33 ± 0.34. Regarding CGCGAGCAAUAUUACGGCAU, the “self-splicing fitness (ln)” value (30 °C) is -2.86 ± 0.17 and the “self-splicing fitness (ln)” value (37 °C) was -1.43 ± 0.12. GUUGAGCAAUAUUACGUGGU: the “self-splicing fitness (ln)” value (30 °C) is -3.25 ± 0.28. In the case of UUAGAGCAAUAUUACGUAAU, the “self-splicing fitness (ln)” value is, setting by setting: (30 °C) -2.77 ± 0.31; (37 °C) -1.69 ± 0.36. As to AGUGAGCAAUAUUACGAGAG, the “self-splicing fitness (ln)” value (30 °C) is -2.1 ± 0.26 and the “self-splicing fitness (ln)” value (37 °C) was -2.36 ± 0.29.
